Results reported in paper PMC11210195.

Experiments:
Assay in all cases: SPR; Biacore T200, C1 chip, 25 °C, HBS-EP+ (10 mM HEPES, 150 mM NaCl, 3 mM EDTA, 0.05% P20, pH 7.4); antibody Fc variants captured via anti-human Fab-kappa nanobody (about 60 RU), Fc only variants amine-coupled (60-80 RU), cytokine-Fc fusions captured via anti-PGLALA F(ab')2 (35-40 RU); PRYSPRY domain injected in five two-fold dilutions from 500, 1000 or 2000 nM; global fit, Langmuir 1:1, affinity mode
[1] = molecular target: mAb1 HH (human IgG1, T307H, N434H) (human)
[2] = molecular target: mAb1 YTE (human IgG1, M252Y, S254T, T256E) (human)
[3] = molecular target: mAb1 YTE-AAA (asymmetrical human IgG1, one Fc heavy chain YTE, the other AAA) (human)

TRIM21 PRYSPRY domain, sequence (P19474 277-475): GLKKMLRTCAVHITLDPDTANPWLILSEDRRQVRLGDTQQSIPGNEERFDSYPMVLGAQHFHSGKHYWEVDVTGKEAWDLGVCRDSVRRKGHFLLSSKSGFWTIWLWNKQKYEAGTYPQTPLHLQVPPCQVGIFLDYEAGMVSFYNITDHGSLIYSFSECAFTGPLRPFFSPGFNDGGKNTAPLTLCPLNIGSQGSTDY

For “TRIM21 PRYSPRY domain (from UniProt P19474-1 277-475) (domain or fragment)”, the Kd [1] was 101 nM, the koff [1] was 0.477 s⁻¹ and the kon [1] was 4.74e+06 M⁻¹ s⁻¹. For the same substance, the Kd [2] was 74.8 nM, the koff [2] was 0.16 s⁻¹ and the kon [2] was 2.14e+06 M⁻¹ s⁻¹. It also gave a Kd [3] of 92.6 nM, a koff [3] of 0.189 s⁻¹ and a kon [3] of 2.04e+06 M⁻¹ s⁻¹.
